Data published in paper PMC7316778 (Nature Communications, 2020).

Each compound was assayed against T1, FES^WT (Homo sapiens, UniProt P07332) (assay: In vitro TR-FRET kinase assay). Details: TR-FRET assay, 5 µM ATP; n = 3.
T1 construct: human FES cDNA encoding residues 448–822 or human FER cDNA encoding residues 448–820 was amplified by PCR; made in house; host or cells: E. coli BL21(DE3), co-expressing YopH phosphatase
Type: biochemical
Method: All measurements were performed in triplicate.

T1 sequence (P07332 448-822): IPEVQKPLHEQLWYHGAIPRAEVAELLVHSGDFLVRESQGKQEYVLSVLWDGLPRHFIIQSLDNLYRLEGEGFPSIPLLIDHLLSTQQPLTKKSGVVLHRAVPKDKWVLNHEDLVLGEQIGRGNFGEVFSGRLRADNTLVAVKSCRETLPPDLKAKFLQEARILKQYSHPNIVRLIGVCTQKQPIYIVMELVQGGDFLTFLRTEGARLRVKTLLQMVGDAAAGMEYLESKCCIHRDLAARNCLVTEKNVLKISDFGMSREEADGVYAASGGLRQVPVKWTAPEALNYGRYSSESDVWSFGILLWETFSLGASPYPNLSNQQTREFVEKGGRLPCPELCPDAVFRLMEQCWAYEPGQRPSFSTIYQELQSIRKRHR

Compound	pIC50 FES^WT
C=CC(=O)Nc1cccc(Nc2nc(Nc3ccccc3OC)ncc2Cl)c1 [Compound 3]	6.5 ± 0.06

What follows are compounds tested against T1, FES^WT (assay: PamChip microarray peptide phosphorylation). Details: peptide substrate phosphorylated by FES - WT.
Type: biochemical

Compound	Relative phosphorylation (% of highest signal)
NTRK2_509_521 (PVIENPQYFGITN; UniProt Q16620 509-521, looked up, fragment)	-0.566 % of highest signal
VGFR1_1162_1174 (VQQDGKDYIPINA; UniProt P17948 1162-1174, looked up, fragment)	2.3 % of highest signal
VINC_815_827 (KSFLDSGYRILGA; UniProt P18206 815-827, looked up, fragment)	0.223 % of highest signal
ZBT16_621_633 (LRTHNGASPYQCT; UniProt Q05516 621-633, looked up, fragment)	0.657 % of highest signal
VGFR2_1207_1219_C1208S (VSDPKFHYDNTAG; UniProt P35968 1207-1219, looked up, variant C1208S)	0.5 % of highest signal
STAT4_686_698 (TERGDKGYVPSVF; UniProt Q14765 686-698, looked up, fragment)	-0.247 % of highest signal

The compounds below were run against ABL1 (Homo sapiens, UniProt P00519) (assay: PamChip microarray peptide phosphorylation). Details: peptide substrate phosphorylated by ABL1.
Chain of ABL1 (P00519 whole entry): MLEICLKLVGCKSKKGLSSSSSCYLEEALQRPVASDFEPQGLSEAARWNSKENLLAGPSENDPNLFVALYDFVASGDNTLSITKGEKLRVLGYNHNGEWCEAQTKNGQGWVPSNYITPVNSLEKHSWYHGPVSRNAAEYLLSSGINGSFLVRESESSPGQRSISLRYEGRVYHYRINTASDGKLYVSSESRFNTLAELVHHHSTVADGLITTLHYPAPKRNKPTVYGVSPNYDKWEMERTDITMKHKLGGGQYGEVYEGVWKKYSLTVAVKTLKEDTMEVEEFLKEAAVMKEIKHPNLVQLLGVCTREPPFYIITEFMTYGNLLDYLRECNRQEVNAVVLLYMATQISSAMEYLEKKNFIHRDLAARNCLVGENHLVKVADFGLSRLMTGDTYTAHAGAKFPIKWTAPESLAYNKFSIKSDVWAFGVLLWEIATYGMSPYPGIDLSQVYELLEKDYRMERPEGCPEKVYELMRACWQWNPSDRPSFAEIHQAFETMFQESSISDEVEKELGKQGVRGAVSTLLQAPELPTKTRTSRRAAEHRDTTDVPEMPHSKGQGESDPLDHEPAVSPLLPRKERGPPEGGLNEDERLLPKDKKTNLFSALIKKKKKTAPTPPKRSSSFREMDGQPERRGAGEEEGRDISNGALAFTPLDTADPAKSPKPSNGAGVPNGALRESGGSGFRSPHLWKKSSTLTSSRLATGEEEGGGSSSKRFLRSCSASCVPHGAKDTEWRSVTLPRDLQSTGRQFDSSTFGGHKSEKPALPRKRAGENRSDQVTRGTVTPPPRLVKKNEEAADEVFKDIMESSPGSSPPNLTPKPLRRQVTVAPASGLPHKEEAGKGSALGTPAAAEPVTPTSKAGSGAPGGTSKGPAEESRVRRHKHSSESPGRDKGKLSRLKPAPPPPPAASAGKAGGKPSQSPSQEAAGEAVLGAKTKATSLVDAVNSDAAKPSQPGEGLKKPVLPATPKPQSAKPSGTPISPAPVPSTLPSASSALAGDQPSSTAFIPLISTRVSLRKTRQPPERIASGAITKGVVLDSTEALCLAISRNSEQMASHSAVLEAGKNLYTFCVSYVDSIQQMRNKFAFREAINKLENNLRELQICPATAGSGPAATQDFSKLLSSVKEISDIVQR

Compound	Relative phosphorylation (% of highest signal)
NTRK2_509_521 (PVIENPQYFGITN; UniProt Q16620 509-521, looked up, fragment)	-0.0217 % of highest signal
VGFR1_1162_1174 (VQQDGKDYIPINA; UniProt P17948 1162-1174, looked up, fragment)	-0.426 % of highest signal
VINC_815_827 (KSFLDSGYRILGA; UniProt P18206 815-827, looked up, fragment)	1.1 % of highest signal
ZBT16_621_633 (LRTHNGASPYQCT; UniProt Q05516 621-633, looked up, fragment)	-0.119 % of highest signal
VGFR2_1207_1219_C1208S (VSDPKFHYDNTAG; UniProt P35968 1207-1219, looked up, variant C1208S)	-0.742 % of highest signal
STAT4_686_698 (TERGDKGYVPSVF; UniProt Q14765 686-698, looked up, fragment)	-0.7 % of highest signal

Each compound was assayed against CSK (Homo sapiens, UniProt P41240) (assay: PamChip microarray peptide phosphorylation). Details: peptide substrate phosphorylated by CSK.
Chain of CSK (P41240 whole entry): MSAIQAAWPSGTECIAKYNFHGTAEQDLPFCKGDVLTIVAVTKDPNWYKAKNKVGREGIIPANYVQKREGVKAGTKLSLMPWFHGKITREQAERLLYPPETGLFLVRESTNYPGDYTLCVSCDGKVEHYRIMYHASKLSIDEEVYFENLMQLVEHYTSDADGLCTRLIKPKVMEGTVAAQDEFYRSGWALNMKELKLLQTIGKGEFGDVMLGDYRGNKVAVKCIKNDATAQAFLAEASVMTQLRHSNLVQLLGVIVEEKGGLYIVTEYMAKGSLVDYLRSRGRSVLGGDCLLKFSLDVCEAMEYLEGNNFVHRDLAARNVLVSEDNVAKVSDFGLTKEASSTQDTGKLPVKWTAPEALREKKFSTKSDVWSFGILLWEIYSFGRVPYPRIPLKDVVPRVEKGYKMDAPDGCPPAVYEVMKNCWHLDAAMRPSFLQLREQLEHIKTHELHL

Compound	Relative phosphorylation (% of highest signal)
NTRK2_509_521 (PVIENPQYFGITN; UniProt Q16620 509-521, looked up, fragment)	-0.422 % of highest signal
VGFR1_1162_1174 (VQQDGKDYIPINA; UniProt P17948 1162-1174, looked up, fragment)	-0.737 % of highest signal
VINC_815_827 (KSFLDSGYRILGA; UniProt P18206 815-827, looked up, fragment)	-0.442 % of highest signal
ZBT16_621_633 (LRTHNGASPYQCT; UniProt Q05516 621-633, looked up, fragment)	-0.468 % of highest signal
VGFR2_1207_1219_C1208S (VSDPKFHYDNTAG; UniProt P35968 1207-1219, looked up, variant C1208S)	-1.4 % of highest signal
STAT4_686_698 (TERGDKGYVPSVF; UniProt Q14765 686-698, looked up, fragment)	-0.9 % of highest signal

These compounds were tested against FGR (Homo sapiens, UniProt P09769) (assay: PamChip microarray peptide phosphorylation). Details: peptide substrate phosphorylated by FGR.

Compound	Relative phosphorylation (% of highest signal)
NTRK2_509_521 (PVIENPQYFGITN; UniProt Q16620 509-521, looked up, fragment)	-1.0 % of highest signal
VGFR1_1162_1174 (VQQDGKDYIPINA; UniProt P17948 1162-1174, looked up, fragment)	-3.4 % of highest signal
VINC_815_827 (KSFLDSGYRILGA; UniProt P18206 815-827, looked up, fragment)	-2.6 % of highest signal
ZBT16_621_633 (LRTHNGASPYQCT; UniProt Q05516 621-633, looked up, fragment)	3.8 % of highest signal
VGFR2_1207_1219_C1208S (VSDPKFHYDNTAG; UniProt P35968 1207-1219, looked up, variant C1208S)	-0.6 % of highest signal
STAT4_686_698 (TERGDKGYVPSVF; UniProt Q14765 686-698, looked up, fragment)	-4.1 % of highest signal

Each compound was assayed against LYN (Homo sapiens, UniProt P07948) (assay: PamChip microarray peptide phosphorylation). Details: peptide substrate phosphorylated by LYN.
Chain of LYN (P07948 whole entry): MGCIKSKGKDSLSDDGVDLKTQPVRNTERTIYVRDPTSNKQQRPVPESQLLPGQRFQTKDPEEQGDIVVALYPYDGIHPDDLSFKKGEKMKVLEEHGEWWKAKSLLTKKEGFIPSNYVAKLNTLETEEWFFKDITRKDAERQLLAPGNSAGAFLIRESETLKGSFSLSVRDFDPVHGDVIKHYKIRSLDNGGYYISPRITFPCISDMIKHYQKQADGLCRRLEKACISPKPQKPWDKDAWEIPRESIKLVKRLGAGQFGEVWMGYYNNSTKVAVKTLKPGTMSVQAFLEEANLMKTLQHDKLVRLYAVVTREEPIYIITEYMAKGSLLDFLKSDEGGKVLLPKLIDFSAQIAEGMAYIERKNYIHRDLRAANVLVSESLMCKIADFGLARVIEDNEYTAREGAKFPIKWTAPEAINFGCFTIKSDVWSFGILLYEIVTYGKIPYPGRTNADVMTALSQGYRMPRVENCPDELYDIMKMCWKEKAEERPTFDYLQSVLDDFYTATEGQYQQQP

Compound	Relative phosphorylation (% of highest signal)
NTRK2_509_521 (PVIENPQYFGITN; UniProt Q16620 509-521, looked up, fragment)	0.113 % of highest signal
VGFR1_1162_1174 (VQQDGKDYIPINA; UniProt P17948 1162-1174, looked up, fragment)	-0.153 % of highest signal
VINC_815_827 (KSFLDSGYRILGA; UniProt P18206 815-827, looked up, fragment)	-0.3 % of highest signal
ZBT16_621_633 (LRTHNGASPYQCT; UniProt Q05516 621-633, looked up, fragment)	-0.2 % of highest signal
VGFR2_1207_1219_C1208S (VSDPKFHYDNTAG; UniProt P35968 1207-1219, looked up, variant C1208S)	-0.213 % of highest signal
STAT4_686_698 (TERGDKGYVPSVF; UniProt Q14765 686-698, looked up, fragment)	-0.165 % of highest signal

These compounds were tested against SYK (Homo sapiens, UniProt P43405) (assay: PamChip microarray peptide phosphorylation). Details: peptide substrate phosphorylated by SYK.

Compound	Relative phosphorylation (% of highest signal)
NTRK2_509_521 (PVIENPQYFGITN; UniProt Q16620 509-521, looked up, fragment)	0.0821 % of highest signal
VGFR1_1162_1174 (VQQDGKDYIPINA; UniProt P17948 1162-1174, looked up, fragment)	1.8 % of highest signal
VINC_815_827 (KSFLDSGYRILGA; UniProt P18206 815-827, looked up, fragment)	-1.0 % of highest signal
ZBT16_621_633 (LRTHNGASPYQCT; UniProt Q05516 621-633, looked up, fragment)	-1.0 % of highest signal
VGFR2_1207_1219_C1208S (VSDPKFHYDNTAG; UniProt P35968 1207-1219, looked up, variant C1208S)	-1.4 % of highest signal
STAT4_686_698 (TERGDKGYVPSVF; UniProt Q14765 686-698, looked up, fragment)	-1.2 % of highest signal

What follows are compounds tested against FES^S700C (Homo sapiens, UniProt P07332, S700C) (assay: In vitro TR-FRET kinase assay). Details: IC50 on FES^WT divided by IC50 on FES^S700C.
Chain of FES^S700C (P07332 448-822 S700C): as the sequence (P07332 448-822) above, with S253C counted along it
Type: biochemical
Set-up: human FES cDNA encoding residues 448–822 or human FER cDNA encoding residues 448–820 was amplified by PCR; made in house; host or cells: E. coli BL21(DE3), co-expressing YopH phosphatase

Compound	Apparent fold selectivity
C=CC(=O)Nc1cccc(Nc2nc(Nc3ccccc3OC)ncc2Cl)c1 [Compound 3]	0.65 fold

Same assay, conditions: TR-FRET assay, 5 µM ATP; n = 3

Compound	pIC50 FES^S700C
C=CC(=O)Nc1cccc(Nc2nc(Nc3ccccc3OC)ncc2Cl)c1 [Compound 3]	6.3 ± 0.06
